How the values were obtained:
Fes = Fes (UniProt P07332); test: phosphorylation enrichment, bacterial display (enrichment ratio); higher = better substrate or ligand; peptides without Tyr show the background
Jak2 = Jak2 (UniProt O60674); test: as above
Hck = Hck (UniProt P08631); test: as above
AncSZ = test: as above
MERTK = MERTK (UniProt Q12866); test: as above
Fyn = Fyn (UniProt P06241); test: as above
c-Abl (mouse) = test: as above
EPHB1 = EPHB1 (UniProt P54762); test: as above
FGFR1 = FGFR1 (UniProt P11362); test: as above
Sequence of FGFR1 (P11362 whole entry, looked up): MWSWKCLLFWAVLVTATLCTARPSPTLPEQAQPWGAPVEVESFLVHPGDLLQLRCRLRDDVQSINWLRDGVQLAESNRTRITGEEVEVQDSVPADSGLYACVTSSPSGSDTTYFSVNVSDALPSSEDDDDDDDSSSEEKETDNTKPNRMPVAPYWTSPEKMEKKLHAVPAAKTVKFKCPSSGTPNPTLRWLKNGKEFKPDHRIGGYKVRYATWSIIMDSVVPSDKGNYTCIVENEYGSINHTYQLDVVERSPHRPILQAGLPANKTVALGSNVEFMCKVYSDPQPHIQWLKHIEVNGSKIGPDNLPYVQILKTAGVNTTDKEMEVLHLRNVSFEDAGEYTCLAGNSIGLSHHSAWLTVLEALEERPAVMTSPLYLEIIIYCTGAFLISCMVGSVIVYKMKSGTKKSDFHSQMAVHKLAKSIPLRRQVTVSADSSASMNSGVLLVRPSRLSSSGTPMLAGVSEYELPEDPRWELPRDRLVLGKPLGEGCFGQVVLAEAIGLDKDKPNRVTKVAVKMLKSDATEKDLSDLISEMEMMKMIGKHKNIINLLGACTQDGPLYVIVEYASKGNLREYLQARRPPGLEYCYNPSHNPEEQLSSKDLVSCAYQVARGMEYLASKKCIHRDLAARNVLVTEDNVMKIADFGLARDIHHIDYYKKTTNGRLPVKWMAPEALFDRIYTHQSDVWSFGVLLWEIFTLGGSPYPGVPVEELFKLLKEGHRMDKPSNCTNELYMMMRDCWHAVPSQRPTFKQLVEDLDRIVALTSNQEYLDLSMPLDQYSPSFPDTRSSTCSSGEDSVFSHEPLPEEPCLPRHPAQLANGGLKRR

EPHB2 = EPHB2 (UniProt P29323); test: as above
Fer (mouse) = test: as above
c-Src = test: as above
FGFR3 = FGFR3 (UniProt P22607); test: as above
Sequence of FGFR3 (P22607 whole entry, looked up): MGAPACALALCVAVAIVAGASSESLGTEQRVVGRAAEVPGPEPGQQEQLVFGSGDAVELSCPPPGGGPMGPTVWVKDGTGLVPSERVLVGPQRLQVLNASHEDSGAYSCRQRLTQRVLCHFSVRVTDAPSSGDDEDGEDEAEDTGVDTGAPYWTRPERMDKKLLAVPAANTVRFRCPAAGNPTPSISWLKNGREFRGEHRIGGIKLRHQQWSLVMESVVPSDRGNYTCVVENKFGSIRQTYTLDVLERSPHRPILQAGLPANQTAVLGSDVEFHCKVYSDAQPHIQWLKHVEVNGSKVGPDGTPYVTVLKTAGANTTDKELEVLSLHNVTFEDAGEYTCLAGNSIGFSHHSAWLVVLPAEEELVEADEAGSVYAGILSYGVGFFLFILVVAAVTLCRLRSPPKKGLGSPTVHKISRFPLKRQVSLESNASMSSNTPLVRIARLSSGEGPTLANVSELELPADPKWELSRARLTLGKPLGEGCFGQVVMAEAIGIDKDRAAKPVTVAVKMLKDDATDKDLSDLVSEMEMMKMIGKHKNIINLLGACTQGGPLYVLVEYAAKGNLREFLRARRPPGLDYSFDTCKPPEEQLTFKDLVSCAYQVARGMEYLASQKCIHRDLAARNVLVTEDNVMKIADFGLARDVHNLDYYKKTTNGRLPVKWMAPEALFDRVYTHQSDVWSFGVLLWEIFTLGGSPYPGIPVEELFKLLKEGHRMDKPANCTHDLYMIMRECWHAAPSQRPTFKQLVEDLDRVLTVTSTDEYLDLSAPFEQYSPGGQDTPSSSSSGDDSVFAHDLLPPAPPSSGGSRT

Grb2 SH2 = Grb2 SH2 (UniProt P62993); test: SH2 binding enrichment of the phosphorylated peptide, bacterial display (enrichment ratio); higher = better substrate or ligand; peptides without Tyr show the background
Sequence of Grb2 SH2 (P62993 whole entry, looked up): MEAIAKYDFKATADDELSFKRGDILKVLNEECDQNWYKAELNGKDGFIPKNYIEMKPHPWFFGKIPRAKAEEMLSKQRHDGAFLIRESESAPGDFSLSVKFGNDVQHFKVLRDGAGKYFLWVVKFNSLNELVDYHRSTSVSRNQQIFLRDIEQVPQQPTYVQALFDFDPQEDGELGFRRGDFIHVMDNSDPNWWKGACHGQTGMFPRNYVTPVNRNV

c-Src SH2 = test: as above
SHP2-C SH2 = test: as above
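For SH2 binding enrichment of the phosphorylated peptide, bacterial display in this document: peptide library displayed on the E. coli surface as eCPX fusions, selected cells deep-sequenced, score is each peptide's frequency after selection divided by its frequency in the input.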
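For phosphorylation enrichment, bacterial display in this document: 11-residue human phosphosite peptides and single-mutation variants displayed on the E. coli surface, counted by deep sequencing, each peptide's frequency after selection divided by its frequency in the unselected input library; frequency after pTyr selection over input frequency; kinase dosed for 20-30% of maximal phosphorylation in three min.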

Sequence of EPHB1 (P54762 whole entry, looked up): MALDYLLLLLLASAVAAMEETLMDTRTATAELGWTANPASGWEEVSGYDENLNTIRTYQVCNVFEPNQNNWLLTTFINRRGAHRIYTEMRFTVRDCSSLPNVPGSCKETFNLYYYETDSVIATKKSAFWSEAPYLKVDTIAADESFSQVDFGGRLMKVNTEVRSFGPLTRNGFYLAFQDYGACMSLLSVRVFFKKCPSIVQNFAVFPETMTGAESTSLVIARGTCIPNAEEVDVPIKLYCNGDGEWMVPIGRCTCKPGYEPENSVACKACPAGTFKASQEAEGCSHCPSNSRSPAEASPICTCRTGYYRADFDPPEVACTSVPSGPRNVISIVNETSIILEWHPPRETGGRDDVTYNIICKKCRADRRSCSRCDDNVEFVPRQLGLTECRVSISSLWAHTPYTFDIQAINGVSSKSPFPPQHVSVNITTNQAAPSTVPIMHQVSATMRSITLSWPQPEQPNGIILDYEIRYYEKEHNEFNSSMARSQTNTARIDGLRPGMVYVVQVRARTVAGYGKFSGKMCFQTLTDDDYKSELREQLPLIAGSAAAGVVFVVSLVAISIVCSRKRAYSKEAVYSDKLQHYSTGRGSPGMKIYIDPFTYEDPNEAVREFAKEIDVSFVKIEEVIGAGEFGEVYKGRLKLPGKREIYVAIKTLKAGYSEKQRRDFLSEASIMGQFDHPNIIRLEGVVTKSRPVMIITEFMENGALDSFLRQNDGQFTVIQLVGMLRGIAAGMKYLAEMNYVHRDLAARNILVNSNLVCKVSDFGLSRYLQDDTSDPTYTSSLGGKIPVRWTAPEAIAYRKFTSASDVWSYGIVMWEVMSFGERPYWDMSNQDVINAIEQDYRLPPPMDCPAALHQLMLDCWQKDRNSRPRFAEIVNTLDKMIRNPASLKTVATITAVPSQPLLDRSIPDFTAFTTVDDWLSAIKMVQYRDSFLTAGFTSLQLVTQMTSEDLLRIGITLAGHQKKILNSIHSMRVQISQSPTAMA
Sequence of Hck (P08631 whole entry, looked up): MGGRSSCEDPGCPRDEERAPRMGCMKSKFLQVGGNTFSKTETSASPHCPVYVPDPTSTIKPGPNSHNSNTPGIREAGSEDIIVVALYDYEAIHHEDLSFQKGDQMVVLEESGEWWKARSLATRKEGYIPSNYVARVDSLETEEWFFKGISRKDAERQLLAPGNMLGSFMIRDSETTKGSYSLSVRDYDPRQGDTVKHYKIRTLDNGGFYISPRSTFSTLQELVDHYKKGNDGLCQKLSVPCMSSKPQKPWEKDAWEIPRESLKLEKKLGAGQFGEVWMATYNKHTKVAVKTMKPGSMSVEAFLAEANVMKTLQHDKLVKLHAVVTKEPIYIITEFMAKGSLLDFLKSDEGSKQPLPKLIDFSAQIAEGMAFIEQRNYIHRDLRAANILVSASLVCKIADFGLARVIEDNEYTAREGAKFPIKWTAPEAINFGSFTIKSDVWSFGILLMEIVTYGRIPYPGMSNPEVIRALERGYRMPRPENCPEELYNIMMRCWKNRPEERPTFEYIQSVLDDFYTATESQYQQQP
Sequence of Jak2 (O60674 whole entry, looked up): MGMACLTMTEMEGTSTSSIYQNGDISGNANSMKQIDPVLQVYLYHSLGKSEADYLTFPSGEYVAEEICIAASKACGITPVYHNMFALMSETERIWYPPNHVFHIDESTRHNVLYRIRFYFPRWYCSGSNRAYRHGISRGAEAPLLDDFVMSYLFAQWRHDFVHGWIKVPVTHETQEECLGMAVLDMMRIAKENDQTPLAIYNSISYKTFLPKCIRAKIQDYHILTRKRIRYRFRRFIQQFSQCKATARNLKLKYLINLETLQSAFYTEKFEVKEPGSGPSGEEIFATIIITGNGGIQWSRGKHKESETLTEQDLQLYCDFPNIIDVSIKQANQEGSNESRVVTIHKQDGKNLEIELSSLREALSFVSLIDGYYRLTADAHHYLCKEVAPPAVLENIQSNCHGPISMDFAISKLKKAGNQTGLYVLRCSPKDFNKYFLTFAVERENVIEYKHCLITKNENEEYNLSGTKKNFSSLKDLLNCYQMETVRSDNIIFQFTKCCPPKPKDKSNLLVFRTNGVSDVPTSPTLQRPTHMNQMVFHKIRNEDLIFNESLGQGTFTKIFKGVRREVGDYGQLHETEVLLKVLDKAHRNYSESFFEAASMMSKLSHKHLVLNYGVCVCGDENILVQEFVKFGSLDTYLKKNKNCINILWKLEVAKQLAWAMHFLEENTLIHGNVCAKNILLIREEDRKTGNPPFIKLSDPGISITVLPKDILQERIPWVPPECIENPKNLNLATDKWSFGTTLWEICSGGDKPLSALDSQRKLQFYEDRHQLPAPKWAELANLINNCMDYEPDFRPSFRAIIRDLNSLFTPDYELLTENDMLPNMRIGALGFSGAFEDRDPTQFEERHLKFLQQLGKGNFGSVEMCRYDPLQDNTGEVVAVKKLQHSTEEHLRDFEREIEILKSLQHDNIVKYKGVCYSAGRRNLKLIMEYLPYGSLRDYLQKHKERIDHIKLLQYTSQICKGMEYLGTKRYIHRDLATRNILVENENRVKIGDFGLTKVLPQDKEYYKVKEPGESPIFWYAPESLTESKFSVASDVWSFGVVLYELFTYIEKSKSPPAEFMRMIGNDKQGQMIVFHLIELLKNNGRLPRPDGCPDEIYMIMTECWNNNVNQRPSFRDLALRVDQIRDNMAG
Sequence of Fyn (P06241 whole entry, looked up): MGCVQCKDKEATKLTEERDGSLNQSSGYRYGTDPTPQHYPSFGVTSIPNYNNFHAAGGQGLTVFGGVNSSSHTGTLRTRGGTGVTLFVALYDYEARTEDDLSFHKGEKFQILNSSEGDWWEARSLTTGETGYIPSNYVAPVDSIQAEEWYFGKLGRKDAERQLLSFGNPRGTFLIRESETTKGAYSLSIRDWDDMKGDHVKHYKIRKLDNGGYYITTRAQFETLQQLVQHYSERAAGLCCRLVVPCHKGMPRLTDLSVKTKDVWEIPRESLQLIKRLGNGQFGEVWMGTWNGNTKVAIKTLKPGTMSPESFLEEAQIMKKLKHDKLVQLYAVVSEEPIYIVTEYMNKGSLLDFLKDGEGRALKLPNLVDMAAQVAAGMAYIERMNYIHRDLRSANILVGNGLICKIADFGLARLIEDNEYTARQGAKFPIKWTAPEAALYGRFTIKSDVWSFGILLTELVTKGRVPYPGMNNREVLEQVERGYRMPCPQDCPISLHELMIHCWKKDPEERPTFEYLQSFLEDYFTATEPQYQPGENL

Row | Sequence | phosphorylation enrichment (Fes) | phosphorylation enrichment (Jak2) | phosphorylation enrichment (Hck) | phosphorylation enrichment (AncSZ) | phosphorylation enrichment (MERTK) | phosphorylation enrichment (Fyn) | phosphorylation enrichment (c-Abl (mouse)) | phosphorylation enrichment (EPHB1) | phosphorylation enrichment (FGFR1) | phosphorylation enrichment (EPHB2) | phosphorylation enrichment (Fer (mouse)) | phosphorylation enrichment (c-Src) | phosphorylation enrichment (FGFR3) | SH2 binding enrichment (Grb2 SH2) | SH2 binding enrichment (c-Src SH2) | SH2 binding enrichment (SHP2-C SH2)
1 | CDFKKYGKGLR [ZNF445_Y433_Y428C_YF] | 0.808 | 0.718 | 0.357 | 0.647 | 0.396 | 0.479 | 0.64 | 0.409 | 0.432 | 0.413 | 0.31 | 0.441 | 0.549 | 1.06 | 0.618 | 0.934
2 | AAVDEYLEHRR [FAM221A_Y17_Y20H] | 1.03 | 0.875 | 0.452 | 0.96 | 0.388 | 0.48 | 0.778 | 0.562 | 0.467 | 0.581 | 0.421 | 0.389 | 0.695 | 0.786 | 0.418 | 0.614
3 | RLAKTYETTLK [ALB_Y377_E382K] | 0.848 | 0.607 | 0.459 | 0.768 | 0.695 | 0.82 | 1.65 | 1 | 0.553 | 0.681 | 0.406 | 0.817 | 0.463 | 0.809 | 0.557 | 0.556
4 | YKRAVYCIIGR [NUP93_Y391] | 0.785 | 0.599 | 0.755 | 0.746 | 0.849 | 0.59 | 0.563 | 0.506 | 0.429 | 0.464 | 0.505 | 0.626 | 0.563 | 0.906 | 0.937 | 0.792
5 | TRSFDYMEGGD [FGF7_Y58_YF] | 1.18 | 1.05 | 0.599 | 1.03 | 0.613 | 0.535 | 0.761 | 0.487 | 0.617 | 0.544 | 0.416 | 0.446 | 0.674 | 1.07 | 0.576 | 0.791
6 | AEEEIYGIFGA [SRCtide_2014] | 1.31 | 1.35 | 4.39 | 2.1 | 3.88 | 5.63 | 3.69 | 1.36 | 0.615 | 1.36 | 3 | 4.49 | 0.89 | 0.775 | 0.494 | 0.584
7 | RSSKMYFKTRS [LPL_Y329_L330F] | 1.22 | 0.989 | 0.634 | 1.2 | 0.712 | 0.667 | 1.07 | 0.685 | 0.701 | 0.567 | 0.764 | 0.856 | 0.561 | 0.884 | 0.459 | 0.747
8 | SLGSPYGQPPR [PDLIM4_Y137] | 0.771 | 0.484 | 0.365 | 0.747 | 0.378 | 0.553 | 0.486 | 0.413 | 0.426 | 0.448 | 0.356 | 0.461 | 0.526 | 1.06 | 0.501 | 0.563
9 | VHLFAYDWISI [BEST1_Y227_G222V_YF] | 1.38 | 1.04 | 0.804 | 1.27 | 4.12 | 0.589 | 0.69 | 1.06 | 1.41 | 0.868 | 10.4 | 0.651 | 1.17 | 1.3 | 0.972 | 1.36
10 | KYLENYYDLKK [MMP3_Y41] | 0.99 | 0.782 | 2.16 | 0.922 | 0.709 | 2.24 | 0.736 | 7.15 | 7.68 | 2.77 | 0.513 | 1.15 | 4.8 | 1.02 | 0.775 | 0.73
11 | FSCLPYGRLAF [SLC52A2_Y305_YF] | 1.01 | 1.03 | 0.936 | 0.935 | 0.56 | 0.629 | 0.882 | 0.352 | 0.71 | 0.55 | 0.559 | 2.36 | 0.649 | 0.793 | 0.777 | 0.538
12 | ILCTVYAFKMR [GRM3_Y754_T758M] | 1.47 | 1.09 | 0.55 | 1.46 | 0.47 | 0.567 | 0.883 | 0.97 | 0.503 | 0.568 | 0.553 | 0.65 | 0.89 | 0.979 | 0.718 | 1.1
13 | RRIHRYRGHLW [VHL_Y112_S111R] | 0.524 | 0.375 | 0.462 | 0.563 | 0.575 | 0.468 | 0.382 | 0.507 | 0.43 | 0.445 | 0.376 | 0.49 | 0.452 | 0.532 | 0.389 | 0.531
14 | TTSQPYRCLCS [USH2A_Y534] | 0.941 | 0.931 | 0.523 | 0.951 | 0.781 | 0.557 | 1.07 | 0.473 | 0.552 | 0.587 | 0.509 | 0.562 | 0.707 | 1.24 | 0.653 | 0.992
15 | GTATTYLCGVK [ALPL_Y117_A116T] | 1.13 | 0.946 | 0.582 | 0.914 | 0.493 | 0.479 | 0.811 | 0.5 | 0.595 | 0.8 | 0.495 | 0.472 | 0.758 | 0.67 | 0.483 | 1.15
16 | ETKAFYPEEIS [HSPA1A_Y115] | 0.919 | 1.16 | 0.506 | 1.08 | 0.408 | 0.414 | 0.584 | 0.52 | 0.521 | 0.747 | 0.537 | 0.511 | 0.687 | 0.796 | 0.45 | 0.522

Reference: the supplement of paper PMC10065799, “High-throughput profiling of sequence recognition by tyrosine kinases and SH2 domains using bacterial peptide display” (eLife, 2023)
